These are literature values, as cited in paper PMC10671529.

The target in one data set is HigB2 (Vibrio cholerae) (UniProt Q9KMA6).
In another data set the target is Im9 (Escherichia coli) (UniProt P13479).
Sequence of UniProt P13479 (P13479 whole entry): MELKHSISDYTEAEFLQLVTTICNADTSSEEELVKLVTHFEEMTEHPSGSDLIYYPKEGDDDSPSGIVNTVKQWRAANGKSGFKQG

Sequence of UniProt Q9KMA6 (Q9KMA6 whole entry): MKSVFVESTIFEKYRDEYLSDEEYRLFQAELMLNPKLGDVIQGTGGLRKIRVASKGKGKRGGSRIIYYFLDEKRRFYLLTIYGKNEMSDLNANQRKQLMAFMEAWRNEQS

For HigA2 (from UniProt Q9KMA5), the dissociation constant (Kd) in the data set with HigB2 (Vibrio cholerae) was 3.1 pM. For the substance colicin E9 DNase (from UniProt P09883), in the data set with Im9 (Escherichia coli), the Kd is 0.023 pM.
